Data reported in the supplement of paper PMC7877785.
± gives the uncertainty stated by the source.

Assay: self-splicing fitness, log relative to wild type (ln ratio); higher = more splicing; Tetrahymena group I intron in knt gene, E. coli kanamycin selection, DiMSum; sequences stand for … in CUCUCU…GGAGGGAAAAGUUAUCAGGCAUGCACCUGGUAGCUAGUCUUUAAACCAAUAGAUUGCAUCGGUUUAAAAGGCAAGACCGUCAAAUUGCGGGAAAGGGGUCAACAGCCGUUCAGUACCAAGUCUCAGGGGAAACUUUGAGAUGGCCUUGCAAAGGGUAUGGUAAUAAGCUGACGGACAUGGUCCUAACCACGCAGCCAAGUCCUAAGUCAACAGAUCUUCUGUUGAUAUGGAUGCAGUUCACAGACUAAAUGUCGGUCGGGGAAGAUGUAUUCUUCUCAUAAGAUAUAGUCGGACCUCUCCUUAAUGGGAGCUAGCGGAUGAAGUGAUGCAACACUGGAGCCGCUGGGAACUAAUUUGUAUGCGAAAGUAUAUUGAUUAGUUUUGGAGUACUCGUGGUCG
Procedure, shortened: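 DiMSum derived fitness as the error-weighted combination of fold changes across replicates, kanamycin versus no kanamycin, normalised to wild type. E. coli BL21(DE3) held the library, which randomised all eight P1ex-region intron nucleotides within the knt kanamycin-resistance gene on pET-22b(+). Six replicate transformations grew overnight at 37°C or 30°C on LB agar with or without 25 μg/mL kanamycin, also containing 100 μg/mL carbenicillin, 50 μM IPTG and 0.2% rhamnose, and pooled colonies were amplicon-sequenced on an Illumina HiSeq 2500.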

Sequence | self-splicing fitness (ln) (30 °C) | self-splicing fitness (ln) (37 °C)
AAAUAGCAAUAUUACGUCAU | -2.45 ± 0.08 | -1.51 ± 0.11
AAAUAGCAAUAUUACGUCCA | -0.829 ± 0.084 | -0.327 ± 0.1
AAAUAGCAAUAUUACGUCGG | -2.54 ± 0.14 | -1.14 ± 0.13
AAAUAGCAAUAUUACGUCGU | -2.69 ± 0.17 | -1.55 ± 0.16
AAAUAGCAAUAUUACGUCUC | -2.14 ± 0.11 | -1.15 ± 0.14
AAAUAGCAAUAUUACGUGAU | -2.26 ± 0.099 | -1.89 ± 0.11
AAAUAGCAAUAUUACGUGGG | -3.39 ± 0.2 | -2.49 ± 0.2
AAAUAGCAAUAUUACGUUAG | -4.15 ± 0.42 | -3.24 ± 0.3
AAAUAGCAAUAUUACGUUCA | -0.751 ± 0.094 | 0.187 ± 0.12
AAAUAGCAAUAUUACGUUCC | -2.08 ± 0.16 | -1.1 ± 0.19
AACAAGCAAUAUUACGAAAU | -3.53 ± 0.13 | -1.4 ± 0.095
AACAAGCAAUAUUACGAGUG | -0.911 ± 0.049 | -0.0361 ± 0.07
AACAAGCAAUAUUACGAUGG | -3.11 ± 0.094 | -1.72 ± 0.079
AACAAGCAAUAUUACGAUUA | -0.823 ± 0.066 | -0.696 ± 0.071
AACAAGCAAUAUUACGAUUG | -4.48 ± 0.21 | -1.54 ± 0.13
AACAAGCAAUAUUACGCAGU | -3.43 ± 0.19 | -1.93 ± 0.16
AACAAGCAAUAUUACGCCAC | -3.71 ± 0.4 | -2.83 ± 0.47
AACAAGCAAUAUUACGCCCC | -0.645 ± 0.24 | 0.323 ± 0.26
AACAAGCAAUAUUACGCGUC | -3.84 ± 0.2 | -2.66 ± 0.15
AACAAGCAAUAUUACGCUUG | -2.82 ± 0.12 | -2.28 ± 0.16
AACAAGCAAUAUUACGGAGA | -3.58 ± 0.23 | -3.19 ± 0.24
AACAAGCAAUAUUACGGCGA | -0.0322 ± 0.064 | -0.329 ± 0.071
AACAAGCAAUAUUACGGCUA | -0.414 ± 0.067 | 0.274 ± 0.092
AACAAGCAAUAUUACGGGCG | -0.896 ± 0.075 | -1.08 ± 0.089

Sequence | self-splicing fitness (ln) (30 °C) | self-splicing fitness (ln) (37 °C)
AACAAGCAAUAUUACGGGUA | -0.841 ± 0.063 | -0.307 ± 0.071
AACAAGCAAUAUUACGUAAC | -3.29 ± 0.12 | -2.33 ± 0.17
AACAAGCAAUAUUACGUAGG | -2.76 ± 0.086 | -1.57 ± 0.1
AACAAGCAAUAUUACGUCCG | -1.26 ± 0.067 | -0.444 ± 0.085
AACAAGCAAUAUUACGUGAC | -2.94 ± 0.095 | -2.34 ± 0.12
AACCAGCAAUAUUACGAAAU | -1.08 ± 0.058 | -0.397 ± 0.074
AACCAGCAAUAUUACGAAUC | -1.65 ± 0.094 | -0.882 ± 0.1
AACCAGCAAUAUUACGACAU | -0.243 ± 0.01 | 0.152 ± 0.031
AACCAGCAAUAUUACGACCA | -0.702 ± 0.082 | 0.122 ± 0.11
AACCAGCAAUAUUACGACGA | -0.496 ± 0.076 | -0.38 ± 0.071
AACCAGCAAUAUUACGAUCG | -0.866 ± 0.084 | -0.752 ± 0.099
AACCAGCAAUAUUACGAUCU | -0.425 ± 0.052 | 0.391 ± 0.074
AACCAGCAAUAUUACGAUGC | -1.49 ± 0.076 | -0.673 ± 0.082
AACCAGCAAUAUUACGAUGG | -2.91 ± 0.11 | -2.76 ± 0.14
AACCAGCAAUAUUACGCGAU | -3.69 ± 0.19 | -1.77 ± 0.15
AACCAGCAAUAUUACGCGCU | -2.01 ± 0.13 | -0.894 ± 0.13
AACCAGCAAUAUUACGCGGG | -4.5 ± 0.24 | -3.16 ± 0.24
AACCAGCAAUAUUACGGCGG | -0.585 ± 0.059 | -0.164 ± 0.078
AACCAGCAAUAUUACGGCUU | -0.621 ± 0.056 | 0.209 ± 0.082
AACCAGCAAUAUUACGGUUC | -3.75 ± 0.14 | -2.43 ± 0.17
AACCAGCAAUAUUACGUACA | -1.08 ± 0.08 | -0.429 ± 0.11
AACCAGCAAUAUUACGUAGU | -1.99 ± 0.06 | -1.42 ± 0.071
AACCAGCAAUAUUACGUAUU | -1.79 ± 0.072 | -0.754 ± 0.08
